For assay [1], the target named is human thrombin (human) (UniProt P00734). Description: enzyme inhibition kinetics (chromogenic substrate S-2238); 100 pM thrombin, 15 µM S-2238, sculptin 0-50 pM; 50 mM phosphate, 150 mM NaCl, 0.1% PEG 6000, pH 7.4, 37 °C; progress curves, kobs against sculptin concentration gives kon and koff; Ki = koff/kon.
The target is the same in assay [2]. Description: enzyme inhibition kinetics (chromogenic substrate S-2238); 0.1 nM thrombin added to sculptin (0-80 pM) and S-2238 at different concentrations; 50 mM phosphate, 150 mM NaCl, 0.1% PEG 6000, pH 7.4, 37 °C; Hanes-Woolf plot, intercepts against inhibitor concentration, confirmed by non-linear regression for competitive inhibition.
For assay [3] the target is unchanged. Description: enzyme inhibition kinetics (chromogenic substrate S-2238); 0.1 nM thrombin, 15 µM S-2238, sculptin 0-500 pM; 50 mM phosphate, 150 mM NaCl, 0.1% PEG 6000, pH 7.4, 37 °C; fractional steady-state velocities fitted to Morrison's tight binding equation.
For assay [4] the target is unchanged.
Assay [5] has the same target. This is another data set of the same source.

From PMC5431157 come the findings set out here.

For orientation: Ki means the equilibrium dissociation constant of an inhibitor or competing ligand from its target. One may read the koff as the first-order rate constant of dissociation. For orientation: kon means the rate constant with which the complex forms. Higher therefore signals faster complex formation.

In assay [1], recombinant sculptin (natural protein) gave an inhibition constant Ki of 0.0161 nM, a koff of 0.00065 s⁻¹ and a kon of 4.04e+07 M⁻¹ s⁻¹. This substance came in with a Ki in assay [2] of 0.0183 nM. For the same substance, in assay [3], the Ki stood at 0.0195 nM. The IC50 of inhibition of thrombin (0.1 nM) hydrolysis of 15 µM S-2238, dose-response fit in assay [4] is 0.0866 nM. In addition, the residual activity of thrombin (100 pM, chromogenic substrate) with 1 nM sculptin, 6 h at 37 °C in assay [5] was determined as 97%.
